Test [1] addresses T1, recombinant human IGF-II (Insulin-like Growth Factor II) (human, UniProt P01344 25-91, biotinylated (Biotinyl-IGF-II, GroPep) where immobilised in SPR, site not stated; not biotinylated in ITC and as SPR analyte).
T1 construct: also called IGF2; IGF-2
The test can be described thus: SPR, IGF-II immobilised, kinetic fit. How it is done: Kinetic analysis by Surface Plasmon Resonance (SPR) was conducted on a BIAcore 3000 biosensor (BIAcore, Uppsala, Sweden) at 25° C. in HBS-EP (10 mM HEPES, pH 7.4, 150 mM NaCl, 3 mM EDTA, 0.005% surfactant P20) at a flow rate of 40 μl/min. […] Kinetic experiments consisted of a two minute injection of analyte followed by a 100 s dissociation phase in running buffer, after which the binding surface was regenerated with a 2 minute injection of 2 M MgCl₂. A blank flow cell was used for in-line reference subtraction of changes due to differences in refractive index of running buffer versus sample and a buffer-only injection was used to subtract instrument noise and drift. Injections were performed in duplicate for each concentration and in a randomised order. Kinetic parameters were determined by global fitting of sensorgrams to a two-state (conformational change) binding model using BIAevaluation software version 4.0.1. In all cases the minor component made an insignificant contribution to the overall affinity and as such only the kinetic parameters of the major binding component were used. For each interaction the dissociation affinity constant (KD) was also calculated by fitting of the response of each concentration at equilibrium to a steady-state affinity model using BIAevaluation. In order to investigate the influence of ionic strength, kinetic experiments were conducted in HBS-EP running buffers containing the desired NaCl concentration. In each case, analyte samples were made up in the appropriate running buffer prior to injection.

For test [2], the target named is T1, recombinant human IGF-II (Insulin-like …). In words: ITC. On the procedure: Calorimetric measurements were performed using a VP-ITC microcalorimeter (MicroCal). All solutions were thoroughly degassed before use by stirring under vacuum. […] The sample cell contained either wild type domain 11 (7 uM) or the E1544A mutant (8 μM), also in HBS-E buffer. To correct for the heat effects of dilution and mixing, reaction heats obtained from a control experiment, in which IGF2 was injected into HBS-E, were subtracted. Calorimetric data were analysed using MicroCal ORIGIN software (version 5.0) supplied with the instrument. Thermodynamic parameters were derived by fitting the binding isotherms to a single-site binding model. Values for dissociation affinity constants (KD) were determined from duplicate experiments.
In order to validate the SPR sensorgram data, ITC was used to assess the binding affinity between domain 11 and IGF-II. The affinity of the E1544A mutant was also assessed by ITC in order to confirm whether use of a second technique agreed as to the apparent increase in affinity (FIG. 6 and Table 6). Titrations were performed using 17×15 μl injections of 40 μM IGF-II (after an initial 7.51 injection) into the reaction cell containing wild type domain 11 or the E1544A mutant. […] The two fold differences may be simply accounted for by the fidelity of both techniques.
In general terms: Isothermal titration calorimetry measures the heat released or taken up as one component is titrated into another.

T1 sequence (P01344 25-91 limits assumed): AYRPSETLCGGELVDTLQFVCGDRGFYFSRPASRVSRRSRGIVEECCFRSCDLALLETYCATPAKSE

B1: wild type IGF2R domain 11 (amino acids 1511-1650) with C-terminal His6 tag, from Pichia pastoris (receptor)
chain: NEHDDCQVTNPSTGHLFDLSSLSGRAGFTAAYSEKGLVYMSICGENENCPPGVGACFGQTRISVGKANKRLRYVDQVLQLVYKDGSPCPSKSGLSYKSVISFVCRPEAGPTNRPMLISLDKQTCTLFFSWHTPLACEQATHHHHHH
notes: also called WT; wild type domain 11
Consider B1, for which, in test [1], the Kd stood at 102 nM, the koff was 0.053 s⁻¹ and the on-rate (kon) is 525000 M⁻¹ s⁻¹.

B2: IGF2R domain 11 E1544A (amino acids 1511-1650, C-terminal His6 tag, from Pichia pastoris) (receptor)
chain: NEHDDCQVTNPSTGHLFDLSSLSGRAGFTAAYSAKGLVYMSICGENENCPPGVGACFGQTRISVGKANKRLRYVDQVLQLVYKDGSPCPSKSGLSYKSVISFVCRPEAGPTNRPMLISLDKQTCTLFFSWHTPLACEQATHHHHHH
In the case of B2, the “relative affinity increase over wild type” value in test [2] was ~2 fold.

For orientation: Kd means the equilibrium constant for the complex coming apart. As usually defined, the koff is the first-order rate constant of dissociation. Broadly, the kon is the second-order rate constant of association.

Source of the values: US20090304651A1 (published 2009).
